Experimental data published in publication PMC5567221, “The open architecture of HD-PTP phosphatase provides new insights into the mechanism of regulation of ESCRT function” (Scientific Reports, 2017).
One block for each binder: values may come before it.

Key:
Details in all cases: both partners purified
[1] = biological target: T1, HD-PTP Bro1-CC-PRR (residues 1-738) (UniProt Q9H3S7 1-738); test: SPR; ProteOn XPR36; His6-tagged HD-PTP Bro1-CC-PRR immobilised on an HTE chip (5000-8000 RU); synthetic peptides as analytes; equilibrium binding model; 25 °C; 10 mM HEPES pH 7.4, 150 mM NaCl, 0.05% Tween-20
T1 construct: His Domain Protein Tyrosine Phosphatase (HD-PTP), Bro1 and coiled-coil domains plus the proximal region of the PRR (714-738), residues 1-738; cloned into pET28a (NdeI/XhoI); immobilised by the His6 tag on the HTE chip; also called HD-PTP_(Bro1-CC-PRR (+tag)); source: E. coli BL-21(DE3), purified (Nickel beads, MonoQ anion exchange, Superdex200 SEC); not shown: His6, N-terminal, kept
T1 sequence (looked up): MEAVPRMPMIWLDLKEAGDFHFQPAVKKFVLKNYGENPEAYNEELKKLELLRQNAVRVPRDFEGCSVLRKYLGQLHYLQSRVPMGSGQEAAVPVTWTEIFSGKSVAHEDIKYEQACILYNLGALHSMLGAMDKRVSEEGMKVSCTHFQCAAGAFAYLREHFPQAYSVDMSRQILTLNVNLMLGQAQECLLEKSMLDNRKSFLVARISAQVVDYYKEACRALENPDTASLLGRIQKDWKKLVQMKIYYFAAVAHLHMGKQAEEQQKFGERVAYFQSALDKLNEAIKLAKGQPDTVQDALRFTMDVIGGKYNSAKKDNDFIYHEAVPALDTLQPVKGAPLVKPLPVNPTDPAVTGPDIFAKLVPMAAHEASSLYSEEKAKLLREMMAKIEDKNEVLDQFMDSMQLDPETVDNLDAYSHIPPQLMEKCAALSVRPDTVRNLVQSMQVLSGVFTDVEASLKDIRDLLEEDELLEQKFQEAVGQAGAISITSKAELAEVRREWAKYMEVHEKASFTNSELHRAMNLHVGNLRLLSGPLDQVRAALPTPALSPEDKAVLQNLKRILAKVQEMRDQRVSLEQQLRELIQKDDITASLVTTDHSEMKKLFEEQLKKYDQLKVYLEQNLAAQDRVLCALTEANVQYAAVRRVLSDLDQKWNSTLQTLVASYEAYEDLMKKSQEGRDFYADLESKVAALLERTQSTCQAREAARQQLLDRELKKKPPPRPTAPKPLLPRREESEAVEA

[2] = biological target: T1, HD-PTP Bro1-CC-PRR (residues 1-738); test: SPR; ProteOn XPR36; GST-FL-CHMP4B captured on a GLC chip derivatised with anti-GST antibody (3000-4000 RU); HD-PTP proteins as analytes; equilibrium binding model; 25 °C; 10 mM HEPES pH 7.4, 150 mM NaCl, 0.05% Tween-20
[3] = biological target: T2, HD-PTP Bro1 domain (residues 1-361) (UniProt Q9H3S7 1-361); test: as above
T2 construct: His Domain Protein Tyrosine Phosphatase (HD-PTP), Bro1 domain, residues 1-361; cloned into pNIC-28a-Bsa4; No tag cleavage is described for the His6-tagged proteins; The vector pNIC28-Bsa4 probably adds an N-terminal His6 tag with a TEV site (surmise); also called His Domain Protein Tyrosine Phosphatase Bro1; source: E. coli BL-21(DE3), purified (Nickel beads, MonoQ anion exchange, Superdex200 SEC)
T2 sequence (looked up): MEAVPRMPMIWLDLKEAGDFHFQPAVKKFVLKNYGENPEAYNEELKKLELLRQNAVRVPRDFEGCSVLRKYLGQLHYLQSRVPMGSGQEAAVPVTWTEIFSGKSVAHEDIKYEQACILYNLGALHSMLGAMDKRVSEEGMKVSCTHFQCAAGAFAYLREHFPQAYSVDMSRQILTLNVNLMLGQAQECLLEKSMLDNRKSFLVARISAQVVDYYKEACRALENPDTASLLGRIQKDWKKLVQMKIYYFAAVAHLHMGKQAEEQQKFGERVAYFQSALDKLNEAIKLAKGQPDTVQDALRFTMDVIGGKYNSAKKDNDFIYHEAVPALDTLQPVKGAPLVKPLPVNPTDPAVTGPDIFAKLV

Kd [1]: 57.5 ± 3.1 µM
B1: UBAP1 peptide (residues 261-280) (peptide)
peptide: SNIKSLSFPKLDSDDSNQKT
notes: UBAP1 (ESCRT-I subunit), central region, residues 261-280; also called central region of UBAP1; source: synthetic peptide (Generon Ltd, UK)

Kd [2]: 1.1 ± 0.1 µM | Kd [3]: 4.88 ± 0.3 µM
B2: GST-tagged full length CHMP4B (natural protein, UniProt Q9H444 1-224, looked up)
chain: MSVFGKLFGAGGGKAGKGGPTPQEAIQRLRDTEEMLSKKQEFLEKKIEQELTAAKKHGTKNKRAALQALKRKKRYEKQLAQIDGTLSTIEFQREALENANTNTEVLKNMGYAAKAMKAAHDNMDIDKVDELMQDIADQQELAEEISTAISKPVGFGEEFDEDELMAELEELEQEELDKNLLEISGPETVPLPNVPSIALPSKPAKKKEEEDDDMKELENWAGSM
notes: CHMP4B (ESCRT-III subunit), full length; Captured on the chip by an anti-GST antibody; also called FL-CHMP4B; source: E. coli C41, purified (GSTrap FF, glutathione elution)

Kd [1]: 30.9 ± 0.2 µM
B3: CHMP4B peptide (residues 205-224) (peptide)
peptide: KKKEEEDDDMKELENWAGSM
notes: CHMP4B, C-terminal residues 205-224; also called peptide from the C-terminus of CHMP4B; source: synthetic peptide (Generon Ltd, UK)
